Experimental data: the supplement of paper PMC9112550, “Optimization of the antimicrobial peptide Bac7 by deep mutational scanning” (BMC Biology, 2022)

Tested on: Escherichia coli TOP10
Experiment: shrunken log2 fold change of peptide-encoding DNA abundance (4.5 h post-induction vs induction); higher = less antimicrobial activity (less host growth inhibition)
Settings: time post-induction: 4.5 h; library: site-saturation at positions 5, 18, 19, 20
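Note: peptides expressed intracellularly from a pBAD plasmid library in pooled LB shake-flask culture, induced with 0.3% L-arabinose, DNA abundance read by NGS, three biological replicates, DESeq2 with apeglm shrinkage.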

| Sequence | shrunken log2 fold change |
| --- | --- |
| RRIRWRPPRLPRPRPRPIKLPRP | -0.216 |
| RRIRGRPPRLPRPRPRPMLQPRP | 0.324 |
| RRIRYRPPRLPRPRPRPELVPRP | 0.25 |
| RRIRRRPPRLPRPRPRPYGMPRP | -0.242 |
| RRIRNRPPRLPRPRPRPLDDPRP | -0.0578 |
| RRIRCRPPRLPRPRPRPPACPRP | 0.479 |
| RRIRPRPPRLPRPRPRPALSPRP | 0.139 |
| RRIRVRPPRLPRPRPRPEWAPRP | 0.0253 |
| RRIRHRPPRLPRPRPRPGLYPRP | -0.149 |
| RRIRCRPPRLPRPRPRPKWYPRP | -0.239 |
| RRIRIRPPRLPRPRPRPGCNPRP | -0.247 |
| RRIRIRPPRLPRPRPRPHQKPRP | -0.0756 |
| RRIRSRPPRLPRPRPRPYQPPRP | -0.161 |
| RRIRDRPPRLPRPRPRPIAAPRP | 0.476 |
| RRIRYRPPRLPRPRPRPVYGPRP | -0.0722 |
| RRIRCRPPRLPRPRPRPHRGPRP | 0.0133 |
| RRIRFRPPRLPRPRPRPDMQPRP | -0.313 |
| RRIRKRPPRLPRPRPRPWCEPRP | 0.157 |
| RRIRTRPPRLPRPRPRPEMTPRP | 0.0523 |
| RRIRCRPPRLPRPRPRPWYAPRP | -0.529 |
| RRIRMRPPRLPRPRPRPTVRPRP | 0.216 |
| RRIRVRPPRLPRPRPRPWFTPRP | 0.0469 |
| RRIRSRPPRLPRPRPRPRFKPRP | 0.0925 |
| RRIRMRPPRLPRPRPRPLTCPRP | -0.0821 |
| RRIRARPPRLPRPRPRPAKNPRP | 0.312 |

| Sequence | shrunken log2 fold change |
| --- | --- |
| RRIRCRPPRLPRPRPRPTHHPRP | 0.126 |
| RRIRSRPPRLPRPRPRPRLAPRP | 0.45 |
| RRIRFRPPRLPRPRPRPHAVPRP | -0.0464 |
| RRIRFRPPRLPRPRPRPASKPRP | 0.0916 |
| RRIRKRPPRLPRPRPRPMRQPRP | 0.384 |
| RRIRDRPPRLPRPRPRPNHLPRP | 0.000895 |
| RRIRSRPPRLPRPRPRPFIYPRP | -0.82 |
| RRIRTRPPRLPRPRPRPDMIPRP | 0.00205 |
| RRIRNRPPRLPRPRPRPRQRPRP | 0.215 |
| RRIRNRPPRLPRPRPRPHSRPRP | -0.0742 |
| RRIRGRPPRLPRPRPRPAWKPRP | 0.122 |
| RRIRMRPPRLPRPRPRPEQYPRP | 0.282 |
| RRIRFRPPRLPRPRPRPTECPRP | -0.0986 |
| RRIRMRPPRLPRPRPRPFCYPRP | -0.117 |
| RRIRWRPPRLPRPRPRPITTPRP | 0.0992 |
| RRIRSRPPRLPRPRPRPGFCPRP | 0.108 |
| RRIRARPPRLPRPRPRPNKSPRP | -0.174 |
| RRIRFRPPRLPRPRPRPWINPRP | -0.0461 |
| RRIRRRPPRLPRPRPRPGKTPRP | 0.104 |
| RRIRKRPPRLPRPRPRPMWFPRP | 0.0615 |
| RRIRYRPPRLPRPRPRPIHWPRP | -0.182 |
| RRIRHRPPRLPRPRPRPSMLPRP | -0.539 |
| RRIRDRPPRLPRPRPRPTPDPRP | 0.536 |
| RRIRYRPPRLPRPRPRPPQSPRP | -0.118 |
| RRIRERPPRLPRPRPRPPRAPRP | 0.453 |

| Sequence | shrunken log2 fold change |
| --- | --- |
| RRIRIRPPRLPRPRPRPFPTPRP | 0.0232 |
| RRIRPRPPRLPRPRPRPMGWPRP | 0.217 |
| RRIRKRPPRLPRPRPRPSEHPRP | -0.183 |
| RRIRPRPPRLPRPRPRPRVKPRP | -0.0194 |
| RRIRDRPPRLPRPRPRPWYSPRP | -0.0808 |
| RRIRWRPPRLPRPRPRPAWAPRP | 0.579 |
| RRIRNRPPRLPRPRPRPHCTPRP | -0.0475 |
| RRIRCRPPRLPRPRPRPSLGPRP | -0.0171 |
| RRIRCRPPRLPRPRPRPGPDPRP | 0.359 |
| RRIRSRPPRLPRPRPRPTCNPRP | 0.0589 |
| RRIRDRPPRLPRPRPRPRWIPRP | -0.376 |
| RRIRKRPPRLPRPRPRPAIIPRP | -0.0297 |
| RRIRERPPRLPRPRPRPHWHPRP | -0.298 |
| RRIRIRPPRLPRPRPRPIQTPRP | -0.0155 |
| RRIRVRPPRLPRPRPRPSVSPRP | -0.488 |
| RRIRIRPPRLPRPRPRPLDPPRP | -0.0309 |
| RRIRPRPPRLPRPRPRPNEHPRP | -0.263 |
| RRIRYRPPRLPRPRPRPYFAPRP | -0.796 |
| RRIRHRPPRLPRPRPRPYGMPRP | -0.0262 |
| RRIRTRPPRLPRPRPRPAWIPRP | -0.27 |
| RRIRWRPPRLPRPRPRPQDWPRP | 0.36 |
| RRIRLRPPRLPRPRPRPSMRPRP | 0.421 |
| RRIRARPPRLPRPRPRPWWEPRP | 0.37 |
| RRIRFRPPRLPRPRPRPAILPRP | 0.0816 |
| RRIRIRPPRLPRPRPRPMCDPRP | -0.356 |

| Sequence | shrunken log2 fold change |
| --- | --- |
| RRIRVRPPRLPRPRPRPFRLPRP | -0.267 |
| RRIRNRPPRLPRPRPRPMRIPRP | 0.134 |
| RRIRWRPPRLPRPRPRPEFDPRP | 0.198 |
| RRIRGRPPRLPRPRPRPITKPRP | -0.0602 |
| RRIRQRPPRLPRPRPRPKYSPRP | -0.0125 |
| RRIRWRPPRLPRPRPRPNFGPRP | 0.174 |
| RRIRARPPRLPRPRPRPFEQPRP | -0.072 |
| RRIRFRPPRLPRPRPRPFGAPRP | 0.168 |
| RRIRIRPPRLPRPRPRPHVSPRP | -0.0557 |
| RRIRARPPRLPRPRPRPSPMPRP | 0.173 |
| RRIRMRPPRLPRPRPRPWKDPRP | -0.0578 |
| RRIRDRPPRLPRPRPRPSVAPRP | 0.233 |
| RRIRHRPPRLPRPRPRPICEPRP | -0.369 |
| RRIRNRPPRLPRPRPRPVPHPRP | -0.0692 |
| RRIRNRPPRLPRPRPRPIEPPRP | -0.00208 |
| RRIRSRPPRLPRPRPRPEDYPRP | -0.00134 |
| RRIRNRPPRLPRPRPRPHQVPRP | 0.0294 |
| RRIRSRPPRLPRPRPRPPPKPRP | 0.708 |
| RRIRWRPPRLPRPRPRPNKNPRP | -0.0787 |
| RRIRWRPPRLPRPRPRPFGEPRP | 0.439 |
| RRIRFRPPRLPRPRPRPAGGPRP | 0.382 |
| RRIRDRPPRLPRPRPRPLVDPRP | 0.11 |
| RRIRWRPPRLPRPRPRPHDVPRP | 0.132 |
| RRIRFRPPRLPRPRPRPKPHPRP | 1.81 |
| RRIRRRPPRLPRPRPRPMRPPRP | 0.66 |

| Sequence | shrunken log2 fold change |
| --- | --- |
| RRIRGRPPRLPRPRPRPDREPRP | 0.34 |
| RRIRCRPPRLPRPRPRPRCYPRP | -0.532 |
| RRIRGRPPRLPRPRPRPWSLPRP | 0.094 |
| RRIRMRPPRLPRPRPRPHRKPRP | 0.0879 |
| RRIRARPPRLPRPRPRPPVQPRP | 0.227 |
| RRIRDRPPRLPRPRPRPTLAPRP | 0.933 |
| RRIRNRPPRLPRPRPRPMYYPRP | 0.0222 |
| RRIRTRPPRLPRPRPRPNLWPRP | -0.0774 |
| RRIRSRPPRLPRPRPRPCCIPRP | -0.197 |
| RRIRVRPPRLPRPRPRPWNSPRP | -0.106 |
| RRIRFRPPRLPRPRPRPVEQPRP | -0.0448 |
| RRIRPRPPRLPRPRPRPTHEPRP | 0.466 |
| RRIRDRPPRLPRPRPRPTKPPRP | -0.23 |
| RRIRGRPPRLPRPRPRPHGAPRP | -0.00969 |
| RRIRRRPPRLPRPRPRPEGLPRP | 2.59 |
| RRIRRRPPRLPRPRPRPGMGPRP | 0.581 |
| RRIRWRPPRLPRPRPRPPIFPRP | 0.488 |
| RRIRWRPPRLPRPRPRPIGMPRP | -0.131 |
| RRIRGRPPRLPRPRPRPDDPPRP | 0.0369 |
| RRIRARPPRLPRPRPRPQQCPRP | 0.132 |
| RRIRGRPPRLPRPRPRPSHAPRP | 0.423 |
| RRIRFRPPRLPRPRPRPVIHPRP | -0.182 |
| RRIRMRPPRLPRPRPRPYRNPRP | -0.18 |
| RRIRVRPPRLPRPRPRPYDPPRP | -0.468 |
| RRIRNRPPRLPRPRPRPTKIPRP | -0.245 |

| Sequence | shrunken log2 fold change |
| --- | --- |
| RRIRGRPPRLPRPRPRPTHVPRP | 0.483 |
| RRIRCRPPRLPRPRPRPAHKPRP | -0.0944 |
| RRIRYRPPRLPRPRPRPPHIPRP | -0.808 |
| RRIRQRPPRLPRPRPRPWWIPRP | -0.185 |
| RRIRCRPPRLPRPRPRPHTYPRP | -0.578 |
| RRIRARPPRLPRPRPRPATPPRP | 0.894 |
| RRIRNRPPRLPRPRPRPEKPPRP | -0.233 |
| RRIRIRPPRLPRPRPRPWHRPRP | 0.0544 |
| RRIRSRPPRLPRPRPRPPRNPRP | 0.415 |
| RRIRQRPPRLPRPRPRPHMFPRP | 0.0177 |
| RRIRNRPPRLPRPRPRPPCMPRP | -0.0283 |
| RRIRDRPPRLPRPRPRPNSTPRP | -0.295 |
| RRIRARPPRLPRPRPRPNYAPRP | -0.0399 |
| RRIRARPPRLPRPRPRPTTAPRP | 0.514 |
| RRIRKRPPRLPRPRPRPQSKPRP | 0.116 |
| RRIRIRPPRLPRPRPRPSPTPRP | -0.424 |
| RRIRVRPPRLPRPRPRPFINPRP | -0.192 |
| RRIRLRPPRLPRPRPRPFWMPRP | -0.0876 |
| RRIRLRPPRLPRPRPRPDHSPRP | -0.0489 |
| RRIRPRPPRLPRPRPRPHETPRP | -0.164 |
| RRIRHRPPRLPRPRPRPPITPRP | -0.346 |
| RRIRARPPRLPRPRPRPWWHPRP | -0.0749 |
| RRIRMRPPRLPRPRPRPVHEPRP | -0.232 |
| RRIRWRPPRLPRPRPRPYYWPRP | -1.31 |
| RRIRWRPPRLPRPRPRPRKEPRP | 0.0466 |
